Assay [1] has as its target revertant virus (AD169 CMV with the pentameric gH complex restored). The assay is described as follows: antibody-titration EIA, coated revertant virions.
The target is the same in assay [2]. The assay is described as follows: cell-based or functional assay.

“human polyclonal CMV hyperimmune IgG (HIG, CytoGam) (antibody)” came in with an EC50 in assay [1] of 2 µg/mL. Also, the EC50 neutralizing (ARPE-19 cells) in assay [2] amounted to 1 µg/mL.

Values taken from patent US20160130327A1.
